Tests used:
[1] = molecular target: GST-calmodulin C-half (CaM-C, residues 75–148) (UniProt P0DP23); assay: pull-down
[2] = molecular target: GST-calmodulin N-half (CaM-N, residues 1–74) (UniProt P0DP23); assay: pull-down

Row | percent of the binding of IQ3R to Ca2+-CaM-F [1] | percent of the binding of IQ3R to Ca2+-CaM-F [2] | percent of the binding to Ca2+-CaM-F [2] | Substance
1 | 15% | 27% | – | IQGAP1 IQ domain (amino acids 717–916) IQ3R mutant (from UniProt P46940 717-916) (domain or fragment)
2 | – | – | 32% | IQGAP1 wild-type IQ domain (amino acids 717–916) (from UniProt P46940 717-916) (domain or fragment)
